Columns and labels:
[1] = target: recombinant human P450 2E1 (construct 2E1 #18) expressed in E. coli (human) (UniProt P05181); conditions: scale: nmol 6-hydroxychlorzoxazone formed min^-1
[2] = target: P450 2C1028 (modified human cytochrome P450 2C10 expressed in E. coli) (human) (UniProt P11712); conditions: scale: nmol product formed min^-1
[3] = target: P450 2C1029 (truncated human cytochrome P450 2C10 expressed in E. coli) (human) (UniProt P11712); conditions: scale: nmol product formed min^-1
[4] = target: P450 2C9/10 purified from human liver microsomes (human) (UniProt P11712); conditions: scale: nmol product formed min^-1
[5] = target: recombinant human P450 1A2 (construct 1024) expressed in E. coli (human) (UniProt P05177)
[6] = substrate: CCOc1ccc2nc3ccc(=O)cc-3oc2c1; assay: 7-Ethoxyresorufin O-deethylation in P450 1A1 reconstituted system; assay type: biochemical, human; conditions: other: 5 nM P450 1A1, 10 nM NADPH-cytochrome P450 reductase
Protocol: (§1) FIG. 42. Substrate concentration-dependent benzo(a)pyrene 3-hydroxylation (A) and 7-ethoxyresorufin O-deethylation (B) in a P450 1A1 reconstutited system. Benzo(a)pyrene 3-hydroxylation were assayed with 25 nM P450 1A1 and 50 nM NADPH-cytochrome P450 reductase. 7-Ethoxyresorufin O-deethylation were assayed with 5 nM P450 1A1 and 10 nM NADPH-cytochrome P450 reductase.
(§2) 7-Ethoxyresorufin O-dealkylation (Burke and Mayer, Drug Metab. Dispos. 3:245-253 (1975); Burke and Mayer, Chem.-Biol. Interactions 45:243-258 (1983)) and benzo(a)pyrene 3-hydroxylation (Nebert and Gelboin, J. Biol. Chem. 243:6242-6249 (1968); Guengerich in Principles and Methods of Toxicology, Hayes, A. W., Ed., 777-814, Raven Press, New York (1989)) were determined as described elsewhere. Protein concentrations were estimated using a bicinchoninic acid (BCA) method according to the instructions supplied by the manufacturer (Pierce Chemical Co., Rockford, Ill.).
(§3) Catalytic activities. The purified P450 1A1 protein was examined for catalytic activities in a conventional reconstitution system containing rabbit NADPH-P450 reductase and L-α-1,2-dilauroyl-sn-glycero-3-phosphocholine. P450 1A1 catalyzed benzo(a)pyrene 3-hydroxylation and 7-ethoxyresorufin O-deethylation at rates of 1.7 and 6.2 nmol product formed min^-1 (nmol P450)^-1, respectively (FIGS. 41A,B). […]

[7] = substrate: c1ccc2c(c1)cc1ccc3cccc4ccc2c1c34; assay: Benzo(a)pyrene 3-hydroxylation in P450 1A1 reconstituted system; assay type: biochemical, human; conditions: other: 25 nM P450 1A1, 50 nM NADPH-cytochrome P450 reductase
Protocol: as §1, §2, §3

What does the source list for “human liver cytochrome b5 (from UniProt P00167)”?
chlorzoxazone 6-hydroxylation by purified P450 2E1 (Vmax) [1]: 5.56; tolbutamide hydroxylation, reconstituted system [2]: 0.57; tolbutamide hydroxylation, reconstituted system [3]: 1.77; tolbutamide hydroxylation, reconstituted system [4]: 0.51

For “rabbit liver NADPH-P450 reductase (from UniProt P00389) (enzyme)”, which anaerobic reduction of P450 1A2 (rate of reduction, formation of the Fe2+.CO complex) [5] is on record?
The anaerobic reduction of P450 1A2 (rate of reduction, formation of the Fe2+.CO complex) was over 3 min⁻¹.

B1: purified recombinant human cytochrome P450 1A1, N-terminally modified (construct #17, SEQ ID NO: 5), expressed in E. coli (Homo sapiens; L2A) (protein)
chain: AFPISMSATEFLLASVIFCLVFWVIRASRPQVPKGLKNPPGPWGWPLIGHMLTLGKNPHLALSRMSQQYGDVLQIRIGSTPVVVLSGLDTIRQALVRQGDDFKGRPDLYTFTLISNGQSMSFSPDSGPVWAARRRLAQNGLKSFSIASDPASSTSCYLEEHVSKEAEVLISTLQELMAGPGHFNPYRYVVVSVTNVICAICFGRRYDHNHQELLSLVNLNNNFGEVVGSGNPADFIPILRYLPNPSLNAFKDLNEKFYSFMQKMVKEHYKTFEKGHIRDITDSLIEHCQEKQLDENANVQLSDEKIINIVLDLFGAGFDTVTTAISWSLMYLVMNPRVQRKIQEELDTVIGRSRRPRLSDRSHLPYMEAFILETFRHSSFVPFTIPHSTTRDTSLKGFYIPKGRCVFVNQWQINHDQKLWVNPSEFLPERFLTPDGAIDKVLSEKVIIFGMGKRKCIGETIARWEVFLFLAILLQRVEFSVPLGVKVDMTPIYGLTMKHACCEHFQMQLRS
notes: made in house; host or cells: E. coli DH5α, vector pCW
With B1 as the molecule, how does the Km [6] read?
Its Km is 0.58 µM.

What about the kcat [6] of the same molecule?
The kcat was 8.3 nmol product formed min^-1 (nmol P450)^-1.

And the Km [7]?
Its Km is 15 µM.

And the kcat [7]?
The kcat was 2.5 nmol product formed min^-1 (nmol P450)^-1.
